T1: P26 (human, UniProt P02771 381-609, limits assumed)
T1 construct: also called AFP p26
T1 sequence: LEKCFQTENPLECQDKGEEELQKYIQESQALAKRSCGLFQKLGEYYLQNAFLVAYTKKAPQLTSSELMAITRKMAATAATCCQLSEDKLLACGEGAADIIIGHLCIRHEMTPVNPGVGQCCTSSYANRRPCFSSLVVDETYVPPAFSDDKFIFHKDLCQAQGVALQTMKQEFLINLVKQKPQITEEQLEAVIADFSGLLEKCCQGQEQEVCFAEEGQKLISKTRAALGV

B1: D domain SEQ ID NO: 926 (designed binder)
chain: MGSWGEFTVRLYAIDRRLDALGGSEAELAAFEKEIAAFESELQAYKGKGNPEVEELRRFAAIIRAFLQAYRHN
B2: D domain SEQ ID NO: 920 (designed binder)
chain: MGSWSEFTDRLFAIEDRLLALGGSEAELAAFEKEIAAFESELQAYKGKGNPEVEDLRMHAASIRLWLQAYRHN
B3: D domain SEQ ID NO: 921 (designed binder)
chain: MGSWHEFYDRLYAIWDRLDALGGSEAELAAFEKEIAAFESELQAYKGKGNPEVEGLRNAAAVIRIFLQAYRHN
B4: D domain SEQ ID NO: 885 (designed binder)
chain: MGSWYEFYLRLDAIDHRLWALGGSEAELAAFEKEIAAFESELQAYKGKGNPEVEMLREHAAHIRKWLQAYRHN
B5: D domain SEQ ID NO: 901 (designed binder)
chain: MGSWMEFNHRLQAIDGRLWALGGSEAELAAFEKEIAAFESELQAYKGKGNPEVEMLREHAAAIRAFLQAYRHN
B6: D domain SEQ ID NO: 900 (designed binder)
chain: MGSWAEFSDRLNAIDQRLWALGGSEAELAAFEKEIAAFESELQAYKGKGNPEVEILREHAAEIRKFLQAYRHN
B7: D domain SEQ ID NO: 911 (designed binder)
chain: MGSWVEFVERLDAIEFRLFALGGSEAELAAFEKEIAAFESELQAYKGKGNPEVEKLRNHAAHIRSWLQAYRHN
B8: D domain SEQ ID NO: 891 (designed binder)
chain: MGSWTEFEKRLHAIDYRLWALGGSEAELAAFEKEIAAFESELQAYKGKGNPEVEDLREHAAAIRHWLQAYRHN
B9: D domain SEQ ID NO: 910 (designed binder)
chain: MGSWYEFVIRLDAIEDRLFALGGSEAELAAFEKEIAAFESELQAYKGKGNPEVEHLRVHAAHIRVWLQAYRHN
B10: D domain SEQ ID NO: 908 (designed binder)
chain: MGSWYEFMYRLDAIEYRLFALGGSEAELAAFEKEIAAFESELQAYKGKGNPEVESLRIHAAMIREWLQAYRHN
B11: D domain SEQ ID NO: 893 (designed binder)
chain: MGSWLEFSQRLTAIDSRLWALGGSEAELAAFEKEIAAFESELQAYKGKGNPEVENLREHAAKIRNWLQAYRHN
B12: D domain SEQ ID NO: 918 (designed binder)
chain: MGSWVEFYERLNAIEYRLEALGGSEAELAAFEKEIAAFESELQAYKGKGNPEVESLREHAAYIRQWLQAYRHN
B13: D domain SEQ ID NO: 886 (designed binder)
chain: MGSWYEFRARLLAIDERLWALGGSEAELAAFEKEIAAFESELQAYKGKGNPEVEHLREHAAHIRNFLQAYRHN
B14: D domain SEQ ID NO: 913 (designed binder)
chain: MGSWSEFYYRLAAIESRLFALGGSEAELAAFEKEIAAFESELQAYKGKGNPEVERLREHAAHIRRWLQAYRHN
B15: D domain SEQ ID NO: 917 (designed binder)
chain: MGSWVEFYHRLEAIEQRLMALGGSEAELAAFEKEIAAFESELQAYKGKGNPEVESLREQAAAIRSWLQAYRHN
B16: D domain SEQ ID NO: 895 (designed binder)
chain: MGSWMEFVDRLSAIDRRLWALGGSEAELAAFEKEIAAFESELQAYKGKGNPEVEVLREHAANIRQWLQAYRHN
B17: D domain SEQ ID NO: 906 (designed binder)
chain: MGSWFEFFERLAAIEDRLWALGGSEAELAAFEKEIAAFESELQAYKGKGNPEVESLRVHAAAIRAFLQAYRHN
B18: D domain SEQ ID NO: 889 (designed binder)
chain: MGSWSEFFKRLEAIDRRLWALGGSEAELAAFEKEIAAFESELQAYKGKGNPEVEELREHAAHIRVWLQAYRHN
B19: D domain SEQ ID NO: 905 (designed binder)
chain: MGSWYEFSHRLEAIEDRLFALGGSEAELAAFEKEIAAFESELQAYKGKGNPEVEPLREHAAYIRHWLQAYRHN
B20: D domain SEQ ID NO: 907 (designed binder)
chain: MGSWIEFKYRLDAIEWRLEALGGSEAELAAFEKEIAAFESELQAYKGKGNPEVESLRIHAAAIRTWLQAYRHN
B21: D domain SEQ ID NO: 909 (designed binder)
chain: MGSWVEFVTRLEAIEDRLFALGGSEAELAAFEKEIAAFESELQAYKGKGNPEVEHLRAHAAHIRHWLQAYRHN
B22: D domain SEQ ID NO: 912 (designed binder)
chain: MGSWSEFVHRLDAIEVRLFALGGSEAELAAFEKEIAAFESELQAYKGKGNPEVEELRYHAAKIRSWLQAYRHN
B23: D domain SEQ ID NO: 894 (designed binder)
chain: MGSWTEFVNRLYAIDSRLWALGGSEAELAAFEKEIAAFESELQAYKGKGNPEVEGLRTHAAKIRHWLQAYRHN
B24: D domain SEQ ID NO: 904 (designed binder)
chain: MGSWYEFVSRLEAIDDRLYALGGSEAELAAFEKEIAAFESELQAYKGKGNPEVEMLRQHAAAIRHWLQAYRHN
B25: D domain SEQ ID NO: 888 (designed binder)
chain: MGSWTEFQNRLNAIDHRLWALGGSEAELAAFEKEIAAFESELQAYKGKGNPEVESLREHAAKIRVWLQAYRHN
B26: D domain SEQ ID NO: 914 (designed binder)
chain: MGSWYEFYLRLSAIEDRLFALGGSEAELAAFEKEIAAFESELQAYKGKGNPEVESLRVQAAHIRTWLQAYRHN
B27: D domain SEQ ID NO: 915 (designed binder)
chain: MGSWYEFYDRLDAIEDRLFALGGSEAELAAFEKEIAAFESELQAYKGKGNPEVESLRDQAAYIRTWLQAYRHN
B28: D domain SEQ ID NO: 903 (designed binder)
chain: MGSWYEFYYRLEAIDNRLIALGGSEAELAAFEKEIAAFESELQAYKGKGNPEVEVLREHAAKIREWLQAYRHN
B29: D domain SEQ ID NO: 899 (designed binder)
chain: MGSWTEFYQRLDAIDTRLWALGGSEAELAAFEKEIAAFESELQAYKGKGNPEVEGLRQQAAQIRAWLQAYRHN
B30: D domain SEQ ID NO: 916 (designed binder)
chain: MGSWHEFWVRLEAIESRLFALGGSEAELAAFEKEIAAFESELQAYKGKGNPEVESLRVQAAHIRSWLQAYRHN
B31: D domain SEQ ID NO: 902 (designed binder)
chain: MGSWYEFYKRLEAIDNRLYALGGSEAELAAFEKEIAAFESELQAYKGKGNPEVEYLREHAAAIRHWLQAYRHN
B32: D domain SEQ ID NO: 897 (designed binder)
chain: MGSWSEFHTRLDAIDTRLWALGGSEAELAAFEKEIAAFESELQAYKGKGNPEVEDLRRHAAAIRFWLQAYRHN
B33: D domain SEQ ID NO: 892 (designed binder)
chain: MGSWTEFHQRLDAIDERLWALGGSEAELAAFEKEIAAFESELQAYKGKGNPEVEFLREHAAKIRMWLQAYRHN
B34: D domain SEQ ID NO: 890 (designed binder)
chain: MGSWYEFQQRLEAIDTRLWALGGSEAELAAFEKEIAAFESELQAYKGKGNPEVEELREHAAHIRHWLQAYRHN
B35: D domain SEQ ID NO: 896 (designed binder)
chain: MGSWVEFVSRLYAIDFRLWALGGSEAELAAFEKEIAAFESELQAYKGKGNPEVEALREHAAQIRDWLQAYRHN
B36: D domain SEQ ID NO: 898 (designed binder)
chain: MGSWLEFHSRLDAIDTRLWALGGSEAELAAFEKEIAAFESELQAYKGKGNPEVEKLREHAAAIRHYLQAYRHN
B37: D domain SEQ ID NO: 922 (designed binder)
chain: MGSWFEFSNRLYAIWHRLTALGGSEAELAAFEKEIAAFESELQAYKGKGNPEVESLRTQAAFIRILLQAYRHN
B38: D domain SEQ ID NO: 924 (designed binder)
chain: MGSWFEFEDRLFAIWTRLEALGGSEAELAAFEKEIAAFESELQAYKGKGNPEVESLRQSAASIRWLLQAYRHN
B39: D domain SEQ ID NO: 923 (designed binder)
chain: MGSWFEFSDRLYAIWERLDALGGSEAELAAFEKEIAAFESELQAYKGKGNPEVESLRFQAAFIRYQLQAYRHN
B40: D domain SEQ ID NO: 925 (designed binder)
chain: MGSWHEFSERLFAIWTRLEALGGSEAELAAFEKEIAAFESELQAYKGKGNPEVEALRQSAAFIRVMLQAYRHN
B41: D domain SEQ ID NO: 928 (designed binder)
chain: MGSWSIFKYHLADIKLLLEALGGSEAELAYFEFLIADFEFTLQDYKGKGNPEVEALRKEAAAIRDELQAYRHN
B42: D domain SEQ ID NO: 919 (designed binder)
chain: MGSWVEFYHRLDAIFDRLDALGGSEAELAAFEKEIAAFESELQAYKGKGNPEVEELRANAAGIRSWLQAYRHN
B43: D domain SEQ ID NO: 927 (designed binder)
chain: MGSWYEFDHRLMAISFRLVALGGSEAELAAFEKEIAAFESELQAYKGKGNPEVETLRRRAANIRHLLQAYRHN

biological target: T1, P26; assay: ELISA, format not described; set-up: unit not given here

**Q.** How did the ELISA_avg turn out when B1 was run?
**A.** 8.54

**Q.** With B2 as the binder, how does the ELISA_avg read?
**A.** 25.4

**Q.** Which ELISA_avg does the source give for B3 here?
**A.** 22.9

**Q.** Which ELISA_avg does the source give for B4 here?
**A.** 16

**Q.** Which ELISA_avg does the source give for B5 here?
**A.** 33.4

**Q.** B6 was tested. Which ELISA_avg did it give?
**A.** 25.3

**Q.** With B7 as the binder, how does the ELISA_avg read?
**A.** 23.8

**Q.** For B8, which ELISA_avg is on record?
**A.** 17.1

**Q.** With B9 as the binder, how does the ELISA_avg read?
**A.** 30.1

**Q.** Which ELISA_avg does the source give for B10 here?
**A.** 19.4

**Q.** How did the ELISA_avg turn out when B11 was run?
**A.** 30.4

**Q.** B12 was tested. Which ELISA_avg did it give?
**A.** 28.7

**Q.** With B13 as the binder, how does the ELISA_avg read?
**A.** 20.9

**Q.** For B14, which ELISA_avg is on record?
**A.** 30.8

**Q.** Which ELISA_avg does the source give for B15 here?
**A.** 28.5

**Q.** For B16, which ELISA_avg is on record?
**A.** 32.1

**Q.** B17 was tested. Which ELISA_avg did it give?
**A.** 20.3

**Q.** For B18, which ELISA_avg is on record?
**A.** 30.2

**Q.** B19 was tested. Which ELISA_avg did it give?
**A.** 26

**Q.** How did the ELISA_avg turn out when B20 was run?
**A.** 18.3

**Q.** How did the ELISA_avg turn out when B21 was run?
**A.** 11.7

**Q.** B22 was tested. Which ELISA_avg did it give?
**A.** 16.9

**Q.** How did the ELISA_avg turn out when B23 was run?
**A.** 16.7

**Q.** Which ELISA_avg does the source give for B24 here?
**A.** 33.1

**Q.** For B25, which ELISA_avg is on record?
**A.** 30.5

**Q.** B26 was tested. Which ELISA_avg did it give?
**A.** 27.4

**Q.** How did the ELISA_avg turn out when B27 was run?
**A.** 31.9

**Q.** With B28 as the binder, how does the ELISA_avg read?
**A.** 29.6

**Q.** For B29, which ELISA_avg is on record?
**A.** 29.7

**Q.** Which ELISA_avg does the source give for B30 here?
**A.** 26.9

**Q.** With B31 as the binder, how does the ELISA_avg read?
**A.** 30.8

**Q.** B32 was tested. Which ELISA_avg did it give?
**A.** 23.5

**Q.** Which ELISA_avg does the source give for B33 here?
**A.** 24.4

**Q.** How did the ELISA_avg turn out when B34 was run?
**A.** 27.3

**Q.** For B35, which ELISA_avg is on record?
**A.** 29

**Q.** With B36 as the binder, how does the ELISA_avg read?
**A.** 30.8

**Q.** With B37 as the binder, how does the ELISA_avg read?
**A.** 15.2

**Q.** Which ELISA_avg does the source give for B38 here?
**A.** 10.9

**Q.** For B39, which ELISA_avg is on record?
**A.** 19

**Q.** How did the ELISA_avg turn out when B40 was run?
**A.** 8.21

**Q.** B41 was tested. Which ELISA_avg did it give?
**A.** 20.2

**Q.** B42 was tested. Which ELISA_avg did it give?
**A.** 20

**Q.** Which ELISA_avg does the source give for B43 here?
**A.** 20.1
